This is an account of results in the RNAGym collection of RNA variant scans (doi:10.7554/elife.80360).

The chains are these.
B1: CPEB3 Ribozyme (parent)
chain: GGGGGCCACAGCAGAAGCGUUCACGUCGCGGCCCCUGUCAGAUUCUGGUGAAUCUGCGAAUUCUGCUGU

In this series the parent is B1. Nature of the series: self-cleavage, relative activity (ratio to wild type); higher = more cleavage; co-transcriptional.
Regarding GGGGGCCACAGCAGAAGCUUUCACGUCGCGGCCCCUGUCAGAUUCUGGUGAAUCUGCGAAUUCAGCUGU, the self-cleavage is 0.233.
As for GGGGGCCACAGCAGAAGCUUUCACGUCGCGGCCCCUGUCAGAUUCUGGUGAAUCUGCGAAUUCCGCUGU, the figure is 0.249; as for GGGGGCCACAGCAGAAGCUUUCACGUCGCGGCCCCUGUCAGAUUCUGGUGAAUCUGCGAAUUCUGCUUU, 0.738.
In the case of GGGGGCCACAGCAGAAGCUUUCACGUCGCGGCCCCUGUCAGAUUCUGGUGAAUCUGCGAAUUCUGCUCU, the self-cleavage was 0.791.
With GGGGGCCACAGCAGAAGCUAUCACGUCGCGGCCCCUGUCAGAUUCUGGUGAAUCUGCGAAUUCUGCUGU, the self-cleavage was found to be 0.0978.
With GGGGGCCACAGCAGAAGCUCUCACGUCGCGGCCCCUGUCAGAUUCUGGUGAAUCUGCGAAUUCUGCUGU, the self-cleavage came out at 0.166.
As for GGGGGCCACAGCAGAAGCUUUCACAUCGCGGCCCCUGUCAGAUUCUGGUGAAUCUGCGAAUUCUGCUGU, the figure is 0.177.
Turning to GGGGGCCACAGCAGAAGCUUUCACCUCGCGGCCCCUGUCAGAUUCUGGUGAAUCUGCGAAUUCUGCUGU, the self-cleavage amounted to 0.122.
On to GGGGGCCACAGCAGAAGCUUUCACUUCGCGGCCCCUGUCAGAUUCUGGUGAAUCUGCGAAUUCUGCUGU, for which the self-cleavage amounted to 0.14.
Regarding GGGGGCCACAGCAGAAGCUUUCACGUCGCGGCCCCUGUCAGAUUCUGGUGAAUCCGCGAAUUCUGCUGU, the self-cleavage was determined as 0.191.
With GGGGGCCACAGCAGAAGCUUUCACGUCGCGGCCCCUGUUAGAUUCUGGUGAAUCUGCGAAUUCUGCUGU, the self-cleavage came to 0.22.
As for GGGGGCCACAGCAGAAGCUUUCACGUCGCGGCCCCUGUGAGAUUCUGGUGAAUCUGCGAAUUCUGCUGU, the self-cleavage amounted to 0.264.
As for GGGGGCCACAGCAGAAGCUUUCACGUCGCGGCCCCUGUAAGAUUCUGGUGAAUCUGCGAAUUCUGCUGU, the figure is 0.188; as for GGGGGCCACAGCAGAAGCUUUCACGUCGCGGCCCCUGUCAGAUUCUGGCGAAUCUGCGAAUUCUGCUGU, 0.594.
As for GGGGGCCACAGCAGAAGCUUUCACGUCGCGGCCCCUGUCAGAUUCUGGGGAAUCUGCGAAUUCUGCUGU, the figure is 0.459; as for GGGGGCCACAGCAGAAGCUUUCACGUCGCAGCCCCUGUCAGAUUCUGGUGAAUCUGCGAAUUCUGCUGU, 0.143.
As to GGGGGCCACAGCAGAAGCUUUCACGUCGCUGCCCCUGUCAGAUUCUGGUGAAUCUGCGAAUUCUGCUGU, the self-cleavage amounted to 0.166.
With GGGGGCCACAGCAGAAGCUUUCACGUCGCGGCCCCUGUCAGAUUCUGUUGAAUCUGCGAAUUCUGCUGU the figure was 0.681; with GGGGGCCACAGCAGAAGCUUCCACGUCGCGGCCCCUGUCAGAUUCUGGUGAAUCUGCGAAUUCUGCUGU, 0.218; with GGGGGCCACAGCAGAAGCUUUCACGUCGAGGCCCCUGUCAGAUUCUGGUGAAUCUGCGAAUUCUGCUGU, 0.161.
As for GGGGGCCACAGCAGAAGCUUUCACGUCGGGGCCCCUGUCAGAUUCUGGUGAAUCUGCGAAUUCUGCUGU, the figure is 0.175.
With GGGGGCCACAGCAGAAGCUUUCACGUCGCGGCCCCUGUCAGAUUCUGGUAAAUCUGCGAAUUCUGCUGU, the self-cleavage worked out at 0.543.
For GGGGGCCACAGCAGAAGCUUUCACGUCGCGGCCCCUGUCAGAUUCUGGUCAAUCUGCGAAUUCUGCUGU, the self-cleavage was 0.458.
In the case of GGGGGCCACAGCAGAAGCUUUCACGUCGCGGCCCCUGUCAGAUUCUUGUGAAUCUGCGAAUUCUGCUGU, the self-cleavage is 0.64.
With GGGGGCCACAGCAGAAGCUUUCACGUCGCGGCCCCUCUCAGAUUCUGGUGAAUCUGCGAAUUCUGCUGU the figure was 0.175; with GGGGGCCACAGCAGAAGCUUUCACGUCGCGGCCCCUAUCAGAUUCUGGUGAAUCUGCGAAUUCUGCUGU, 0.19.
With GGGGGCCACAGCAGAAGCUUUCACGUCGCGGCCCCUUUCAGAUUCUGGUGAAUCUGCGAAUUCUGCUGU the figure was 0.199; with GGGGGCCACAGCAGAAGCUUUCACGUCGCGGCCCCUGUCAGAUUCUGGUGAAUCUGCAAAUUCUGCUGU, 0.352; with GGGGGCCACAGCAGAAGCUUUCACGUCGCGGCCCCUGUCAGAUUCUGGUGAAUCUGCUAAUUCUGCUGU, 0.553.
As for GGGGGCCACAGCAGAAGCUUUCACGUCACGGCCCCUGUCAGAUUCUGGUGAAUCUGCGAAUUCUGCUGU, the figure is 0.122; as for GGGGGCCACAGCAGAAGCUUUCACGUCUCGGCCCCUGUCAGAUUCUGGUGAAUCUGCGAAUUCUGCUGU, 0.116.
As for GGGGGCCACAGCAGAAGCUUUCACGUCGCGGCCCCUGGCAGAUUCUGGUGAAUCUGCGAAUUCUGCUGU, the self-cleavage stood at 0.201.
As to GGGGGCCACAGCAGAAGCUUUCACGUCGCGGCCCCUGACAGAUUCUGGUGAAUCUGCGAAUUCUGCUGU, the self-cleavage is 0.227.
With GGGGGCCACAGCAGAAGCUUUCACGUCGCGACCCCUGUCAGAUUCUGGUGAAUCUGCGAAUUCUGCUGU the figure was 0.258; with GGGGGCCACAGCAGAAGCUUUCACGUCGCGCCCCCUGUCAGAUUCUGGUGAAUCUGCGAAUUCUGCUGU, 0.163.
Take GGGGGCCACAGCAGAAGCUUUCACGUCGCGUCCCCUGUCAGAUUCUGGUGAAUCUGCGAAUUCUGCUGU: the self-cleavage worked out at 0.168.
In the case of GGGGGCCACAGCAGAAGCUUUCACGUCGCGGCCCCUGUCAGAUUCUGGUGAAUCUGCGAAUACUGCUGU, the self-cleavage turned out to be 0.244.
On to GGGGGCCACAGCAGAAGCUUUCACGUCGCGGCCCCUGUCAGAUUCUGGUGAAUCUGCGAAUGCUGCUGU, for which the self-cleavage amounted to 0.251.
With GGGGGCCACAGCAGAAGCUUUCACGUCGCGGCCCCUGUCAGAUUCUGGUGAAUCUGCGAAUCCUGCUGU the figure was 0.256; with GGGGGCCACAGCAGAAGCUUUCACGUCGCGGGCCCUGUCAGAUUCUGGUGAAUCUGCGAAUUCUGCUGU, 0.157.
Regarding GGGGGCCACAGCAGAAGCUUUCACGUCGCGGACCCUGUCAGAUUCUGGUGAAUCUGCGAAUUCUGCUGU, the self-cleavage was determined as 0.281.
As to GGGGGCCACAGCAGAAGCUUUCACGUCGCGGCCCCUGUCAGAUACUGGUGAAUCUGCGAAUUCUGCUGU, the self-cleavage is 0.354.
Take GGGGGCCACAGCAGAAGCUUUCACGUCGCGGCCCCUGUCAGAUGCUGGUGAAUCUGCGAAUUCUGCUGU: the self-cleavage amounted to 0.398.
As for GGGGGCCACAGCAGAAGCUUUCACGUCGCGGCCCCGGUCAGAUUCUGGUGAAUCUGCGAAUUCUGCUGU, the figure is 0.222; as for GGGGGCCACAGCAGAAGCUUUCACGUCGCGGCCCCUGUCAGAUUCUGGUGAAUCUGCGAAUUAUGCUGU, 0.179.
As for GGGGGCCACAGCAGAAGCUUUCACGUCGCGGCCCCUGUCAGAUUCUGGUGAAUCUGCGAAUUCUACUGU, the figure is 0.254.
With GGGGGCCACAGCAGAAGCUUUCACGUCGCGGCCCCUGUCAGAUUCUGGUGAAUCUGCGAAUUCUCCUGU the figure was 0.287; with GGGGGCCACAGCAGAAGCUUUCACGUCGCGGCCCCUGUCAGAUUCUGGUGAAUCUGCGAAUUCUUCUGU, 0.148.
For GGGGGCCACAGCAGAAGCUUUCACGUCGCGGCCCCUGUCAGAUUCUGGUGAAUCUGCGAAUUCUGGUGU, the self-cleavage is 0.27.
Turning to GGGGGCCACAGCAGAAGCUUUCACGUCGCGGCCCCUGUCAGAUUCUGGUGAAUCUGCGAAUUCUGAUGU, the self-cleavage was determined as 0.271.
With GGGGGCCACAGCAGAAGCUUUCACGUCGCGGCCCCUGUCAGAGUCUGGUGAAUCUGCGAAUUCUGCUGU, the self-cleavage is 0.223.
With GGGGGCCACAGCAGAAGCUUUCACGUCGCGGCCCCUGUCAGACUCUGGUGAAUCUGCGAAUUCUGCUGU the figure was 0.333; with GGGGGCCACAGCAGAAGCUUUCACGUCGCGGCCCCUGUCAGAAUCUGGUGAAUCUGCGAAUUCUGCUGU, 0.202.
For the variant GGGGGCCACAGCAGAAGCUUUCACGUCGCGGCCCCUGUCAUAUUCUGGUGAAUCUGCGAAUUCUGCUGU, the self-cleavage is 0.157.
As for GGGGGCCACAGCAGAAGCUUUCACGUCGCGGCCCCUGUCAAAUUCUGGUGAAUCUGCGAAUUCUGCUGU, the figure is 0.181.
As for GGGGGCCACAGCAGAAGCUUUCACGUCGCGGCCCCUGUCACAUUCUGGUGAAUCUGCGAAUUCUGCUGU, the figure is 0.16; as for GGGGGCCACAGCAGAAGCUUUCACGUCGCGGCCCCUGUCAGAUUCGGGUGAAUCUGCGAAUUCUGCUGU, 0.596; as for GGGGGCCACAGCAGAAGCUUUCACGUCGCGGCCCCUGUCAGAUUCAGGUGAAUCUGCGAAUUCUGCUGU, 0.591.
As for GGGGGCCACAGCAGAAGCUUUCACGUCGCGGCCCCUGUCAGAUUCCGGUGAAUCUGCGAAUUCUGCUGU, the figure is 0.499.
For the variant GGGGGCCACAGCAGAAGCUUUCACGUCGCGGCCCCUGUCAGAUUCUGGUGAAUCUGCGAACUCUGCUGU, the self-cleavage is 0.194.
With GGGGGCCACAGCAGAAGCUUUCACGUCGCGGCCCCUGUCAGAUUCUGGUGAAUCUGCGAAGUCUGCUGU the figure was 0.262.
Consider GGGGGCCACAGCAGAAGCUUUCACGUCGCGGCCCCUGUCAGAUUCUGGUGAAUCUGCGAAAUCUGCUGU, for which the self-cleavage turned out to be 0.217.
Regarding GGGGGCCACAGCAGAAGCUUUCACGUCGCGGCACCUGUCAGAUUCUGGUGAAUCUGCGAAUUCUGCUGU, the self-cleavage turned out to be 0.101.
In the case of GGGGGCCACAGCAGAAGCUUUCACGUCGCGGCUCCUGUCAGAUUCUGGUGAAUCUGCGAAUUCUGCUGU, the self-cleavage was 0.519.
Turning to GGGGGCCACAGCAGAAGCUUUCACGUCGCGGCGCCUGUCAGAUUCUGGUGAAUCUGCGAAUUCUGCUGU, the self-cleavage amounted to 0.203.
In the case of GGGGGCCACAGCAGAAGCUUUCACGUCGCGGCCCCUGUCAGAUUUUGGUGAAUCUGCGAAUUCUGCUGU, the self-cleavage is 0.469.
With GGGGGCCACAGCAGAAGCUUUCACGUCGCGGCCCCUGUCAGAUUGUGGUGAAUCUGCGAAUUCUGCUGU the figure was 0.4; with GGGGGCCACAGCAGAAGCUUUCACGUCGCGGCCCCUGUCAGAUUCUGGUGAAUCUGUGAAUUCUGCUGU, 0.21.
Regarding GGGGGCCACAGCAGAAGCUUUCACGUCGCGGCCCCUGUCAGAUUCUGGUGAAUCUGGGAAUUCUGCUGU, the self-cleavage turned out to be 0.218.
Take GGGGGCCACAGCAGAAGCUUUCACGUCGCGGCCCGUGUCAGAUUCUGGUGAAUCUGCGAAUUCUGCUGU: the self-cleavage amounted to 0.199.
Turning to GGGGGCCACAGCAGAAGCUUUCACGUCGCGGCCCCUGUCAGAUUCUGGUGAAUCUCCGAAUUCUGCUGU, the self-cleavage stood at 0.222.
With GGGGGCCACAGCAGAAGCUUUCACGUCGCGGCCCCUGUCAGAUUCUGGUGAAUCUACGAAUUCUGCUGU, the self-cleavage stood at 0.301.
On to GGGGGCCACAGCAGAAGCUUUCACGCCGCGGCCCCUGUCAGAUUCUGGUGAAUCUGCGAAUUCUGCUGU, for which the self-cleavage was 0.256.
As for GGGGGCCACAGCAGAAGCUUUCACGGCGCGGCCCCUGUCAGAUUCUGGUGAAUCUGCGAAUUCUGCUGU, the figure is 0.256; as for GGGGGCCACAGCAGAAGCUUUCACGACGCGGCCCCUGUCAGAUUCUGGUGAAUCUGCGAAUUCUGCUGU, 0.272; as for GGGGGCCACAGCAGAAGCUUUCACGUCGCGGCCCCUGUCAGAUUCUGGUGAAUUUGCGAAUUCUGCUGU, 0.625.
Regarding GGGGGCCACAGCAGAAGCUUUCACGUCGCGGCCCCUGUCAGAUUCUGGUGAAUGUGCGAAUUCUGCUGU, the self-cleavage was 0.317.
As for GGGGGCCACAGCAGAAGCUUUCACGUCGCGGCCCCUGUCAGAUUCUGGUGAAUAUGCGAAUUCUGCUGU, the figure is 0.182.
